Measured values published in patent publication US20140322220A1.
One block for each binder: values may come before it.

What was measured:
[1] = target: human FGFR2 on human cancer cell lines (human) (UniProt P21802); assay: FACS, 5 ug/ml, SNU16 cells
[2] = target: human FGFR2 on human cancer cell lines (human) (UniProt P21802); assay: FACS, 5 ug/ml, HEC1b cells
[3] = target: human FGFR2 on human cancer cell lines (human) (UniProt P21802); assay: FACS titration 0.1-100 nM, SNU16 cells
[4] = target: murine FGFR2 on murine cancer cell lines (murine) (UniProt P21803); assay: FACS titration 0.1-100 nM, 4T1 cells
[5] = target: human FGFR2 on human cancer cell lines (human) (UniProt P21802); assay: FACS, 5 ug/ml, MFE280 cells
[6] = target: murine FGFR2 on murine cancer cell lines (murine) (UniProt P21803); assay: FACS, 5 ug/ml, 4T1 cells
[7] = target: human FGFR2 on human cancer cell lines (human) (UniProt P21802); assay: FACS, 5 ug/ml, KATOIII cells
[8] = target: human FGFR2 on human cancer cell lines (human) (UniProt P21802); assay: FACS, 5 ug/ml, NCI-N87 cells
[9] = target: human FGFR2 on human cancer cell lines (human) (UniProt P21802); assay: FACS titration 0.1-100 nM, MFM223 cells
[10] = target: hFGFR2β-Fc (IIIc) (human) (UniProt P21802); assay: ELISA, 1 ug/ml Fab on coated antigen; grade of signal to background (+ 2-3, ++ 3-5, +++ >5)
[11] = target: mFGFR2β-Fc (IIIc) (murine) (UniProt P21803); assay: as above

Geo Mean minus Geo Mean of secondary antibody alone (FACS) [1]: 100 to 1000 geomean
Geo Mean minus Geo Mean of secondary antibody alone (FACS) [2]: 100 to 1000 geomean
EC50 [3]: 89.5 nM
EC50 [4]: 20.8 nM
Geo Mean minus Geo Mean of secondary antibody alone (FACS) [5]: 10 to 100 geomean
Geo Mean minus Geo Mean of secondary antibody alone (FACS) [6]: 100 to 1000 geomean
Geo Mean minus Geo Mean of secondary antibody alone (FACS) [7]: > 10000 geomean
Geo Mean minus Geo Mean of secondary antibody alone (FACS) [8]: 10 to 100 geomean
EC50 [9]: 16.9 nM
B1: M021-H02-hIgG1 (antibody, V domains shown)
VH: EVQLLESGGGLVQPGGSLRLSCAASGFTFSNYGIHWVRQAPGKGLEWVAVISYDGSNKYYADSVKGRFTISRDNSKNTLYLQMNSLRAEDTAMYYCARDSSSAEDYWGQGTLVTVSS
VL: QSVLTQPPSASGTPGQRVTISCSGSSSNTGSNTVNWYQQLPGTAPKLLIYRNNQRPSGVPDRFSGSKSGTSASLAISGLRSEDEADYYCETWDSNTRGVVFGGGTKLTVL

ELISA signal to background ratio [10]: > 5
ELISA signal to background ratio [11]: > 5
B2: M021-H02 (soluble Fab) (Fab, V domains shown)
VH: B1 VH
VL: B1 VL

ELISA signal to background ratio [10]: > 5
ELISA signal to background ratio [11]: > 5
B3: M048-D01 (soluble Fab) (Fab, V domains shown)
VH: EVQLLESGGGLVQPGGSLRLSCAASGFTFSSYAMSWVRQAPGKGLEWVSAISGSGTSTYYADSVKGRFTISRDNSKNTLYLQMNSLRAEDTAVYYCARVRYNWNHGDWFDPWGQGTLVTVSS
VL: QSVLTQPPSASGTPGQRVTISCSGSSSNIGNNYVSWYQQLPGTAPKLLIYENYNRPAGVPDRFSGSKSGTSASLAISGLRSEDEADYYCSSWDDSLNYWVFGGGTKLTVL
